Measurements published in patent US20240123068A1 (KITE PHARMA, published 2024).
Blank lines part the entries; values can stand above or below the molecule they belong to.

What was measured:
[1] = molecular target: Human CD19, wild-type full-length protein expressed on cells (human) (UniProt P15391); assay: high-throughput flow cytometry, HEK-293T cells transfected with WT CD19; mean of four replicates; empty vector 0
[2] = molecular target: Human CD19, wild-type full-length protein expressed on cells (human) (UniProt P15391); assay: high-throughput flow cytometry, HEK-293T cells with WT CD19 vs vector, at 0.25 ug/ml
[3] = molecular target: FITC-Labeled human CD19 protein (ACROBiosystem, Cat-CD9-HF251) (human) (UniProt P15391); assay: flow cytometry, ND539 CAR T cells day 9; CD19-FITC protein premixed with anti-CD19 PE (FMC63 clone) 1:1; PE signal read on the cells that hold CD19-FITC by their CAR; competitor CD19 CAR 43 (untransduced 2.25)
[4] = molecular target: FITC-Labeled human CD19 protein (ACROBiosystem, Cat-CD9-HF251) (human) (UniProt P15391); assay: flow cytometry, ND539 CAR T cells day 9; CD19-FITC protein premixed with anti-CD19 PE (FMC63 clone) 1:3; PE signal read on the cells that hold CD19-FITC by their CAR; competitor CD19 CAR 46 (untransduced 2.95)
[5] = molecular target: FITC-Labeled human CD19 protein (ACROBiosystem, Cat-CD9-HF251) (human) (UniProt P15391); assay: flow cytometry, ND539 CAR T cells day 9; CD19-FITC protein premixed with anti-CD19 PE (FMC63 clone) 1:3; PE signal read on the cells that hold CD19-FITC by their CAR; competitor CD19 CAR 45 (untransduced 2.95)
[6] = molecular target: FITC-Labeled human CD19 protein (ACROBiosystem, Cat-CD9-HF251) (human) (UniProt P15391); assay: flow cytometry, ND539 CAR T cells day 9; CD19-FITC protein premixed with anti-CD19 PE (FMC63 clone) 1:3; PE signal read on the cells that hold CD19-FITC by their CAR; competitor CD19 CAR 52 (untransduced 2.95)
[7] = molecular target: FITC-Labeled human CD19 protein (ACROBiosystem, Cat-CD9-HF251) (human) (UniProt P15391); assay: flow cytometry, ND539 CAR T cells day 9; CD19-FITC protein premixed with anti-CD19 PE (FMC63 clone) 1:3; PE signal read on the cells that hold CD19-FITC by their CAR; competitor CD19 CAR 42 (untransduced 2.95)
[8] = molecular target: FITC-Labeled human CD19 protein (ACROBiosystem, Cat-CD9-HF251) (human) (UniProt P15391); assay: flow cytometry, ND539 CAR T cells day 9; CD19-FITC protein premixed with anti-CD19 PE (FMC63 clone) 1:1; PE signal read on the cells that hold CD19-FITC by their CAR; competitor CD19 CAR 52 (untransduced 2.25)
[9] = molecular target: FITC-Labeled human CD19 protein (ACROBiosystem, Cat-CD9-HF251) (human) (UniProt P15391); assay: flow cytometry, ND539 CAR T cells day 9; CD19-FITC protein premixed with anti-CD19 PE (FMC63 clone) 1:3; PE signal read on the cells that hold CD19-FITC by their CAR; competitor CD19 CAR 43 (untransduced 2.95)
[10] = molecular target: FITC-Labeled human CD19 protein (ACROBiosystem, Cat-CD9-HF251) (human) (UniProt P15391); assay: flow cytometry, ND539 CAR T cells day 9; CD19-FITC protein premixed with anti-CD19 PE (FMC63 clone) 1:3; PE signal read on the cells that hold CD19-FITC by their CAR; competitor CAR-FMC63 (untransduced 2.95)
[11] = molecular target: FITC-Labeled human CD19 protein (ACROBiosystem, Cat-CD9-HF251) (human) (UniProt P15391); assay: flow cytometry, ND539 CAR T cells day 9; CD19-FITC protein premixed with anti-CD19 PE (FMC63 clone) 1:1; PE signal read on the cells that hold CD19-FITC by their CAR; competitor CD19 CAR 46 (untransduced 2.25)
[12] = molecular target: FITC-Labeled human CD19 protein (ACROBiosystem, Cat-CD9-HF251) (human) (UniProt P15391); assay: flow cytometry, ND539 CAR T cells day 9; CD19-FITC protein premixed with anti-CD19 PE (FMC63 clone) 1:1; PE signal read on the cells that hold CD19-FITC by their CAR; competitor CD19 CAR 45 (untransduced 2.25)
[13] = molecular target: FITC-Labeled human CD19 protein (ACROBiosystem, Cat-CD9-HF251) (human) (UniProt P15391); assay: flow cytometry, ND539 CAR T cells day 9; CD19-FITC protein premixed with anti-CD19 PE (FMC63 clone) 1:1; PE signal read on the cells that hold CD19-FITC by their CAR; competitor CAR-FMC63 (untransduced 2.25)
[14] = molecular target: FITC-Labeled human CD19 protein (ACROBiosystem, Cat-CD9-HF251) (human) (UniProt P15391); assay: flow cytometry, ND539 CAR T cells day 9; CD19-FITC protein premixed with anti-CD19 PE (FMC63 clone) 1:1; PE signal read on the cells that hold CD19-FITC by their CAR; competitor CD19 CAR 42 (untransduced 2.25)
[15] = molecular target: FITC-Labeled human CD19 protein (ACROBiosystem, Cat-CD9-HF251) (human) (UniProt P15391); assay: flow cytometry, ND539 CAR T cells day 9; CD19-FITC protein premixed with anti-CD19 PE (FMC63 clone) 1:1; PE signal read on the cells that hold CD19-FITC by their CAR; competitor CD19 CAR 44 (untransduced 2.25)
[16] = molecular target: FITC-Labeled human CD19 protein (ACROBiosystem, Cat-CD9-HF251) (human) (UniProt P15391); assay: flow cytometry, ND539 CAR T cells day 9; CD19-FITC protein premixed with anti-CD19 PE (FMC63 clone) 1:3; PE signal read on the cells that hold CD19-FITC by their CAR; competitor CD19 CAR 44 (untransduced 2.95)
SIGLEC 8 = molecular target: T1, SIGLEC 8 (UniProt Q9NYZ4 17-363, limits assumed); assay: counter-screen of the scFv clones against SIGLEC (Step 3)
T1 construct: Counter-screen reagent of Step 3

SIGLEC 7 = molecular target: T2, SIGLEC 7 (UniProt Q9Y286 19-357, limits assumed); assay: as above
T2 construct: Counter-screen reagent of Step 3

SIGLEC 9 = molecular target: T3, SIGLEC 9 (UniProt Q9Y336 18-348, limits assumed); assay: as above
T3 construct: Counter-screen reagent of Step 3

[17] = molecular target: T4, Human CD19, wild-type full-length protein expressed on cells (human, UniProt P15391 20-556); assay: scFv clone screen on NALM6 cells with and without CD19
T4 construct: also called WT CD19; CD19 wild type protein
T4 sequence: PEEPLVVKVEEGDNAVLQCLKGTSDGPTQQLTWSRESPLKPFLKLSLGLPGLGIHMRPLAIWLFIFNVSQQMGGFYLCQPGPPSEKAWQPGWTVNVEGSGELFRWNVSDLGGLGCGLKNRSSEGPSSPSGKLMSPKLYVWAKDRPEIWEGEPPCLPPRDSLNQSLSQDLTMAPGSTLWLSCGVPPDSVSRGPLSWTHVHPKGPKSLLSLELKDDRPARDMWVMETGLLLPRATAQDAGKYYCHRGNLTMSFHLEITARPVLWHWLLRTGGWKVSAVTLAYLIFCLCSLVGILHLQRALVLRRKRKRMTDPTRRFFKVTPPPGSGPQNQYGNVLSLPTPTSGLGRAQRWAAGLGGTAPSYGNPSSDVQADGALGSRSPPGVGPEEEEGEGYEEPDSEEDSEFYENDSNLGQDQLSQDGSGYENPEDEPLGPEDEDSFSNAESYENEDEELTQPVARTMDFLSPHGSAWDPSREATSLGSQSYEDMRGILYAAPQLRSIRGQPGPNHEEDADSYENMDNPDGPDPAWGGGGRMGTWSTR
Excerpt: To ensure that the up to (30) clones could recognize native CD19 expressed on tumor cells, the clones (scFv) were also screened against NALM6 tumor cell line positive (+) CD19 expression (NALM6 cell line⁺ CD19). CD19 knockout Nalm6 cell line (NALM6 cell line⁻ CD1; or CD19KO Nalm6 cell line) were used as a negative control for the selection. CD19KO Nalm6 cell lines used for the screen were engineered CRISPR knocked-out (KO) Nalm6-CD19KO cells. Clones that bound CD19⁺ NALM6 tumor cells, but not CD19-NALM6 tumor cells (CD19KO) were selected (Step 4).

T2 sequence (Q9Y286 19-357 limits assumed): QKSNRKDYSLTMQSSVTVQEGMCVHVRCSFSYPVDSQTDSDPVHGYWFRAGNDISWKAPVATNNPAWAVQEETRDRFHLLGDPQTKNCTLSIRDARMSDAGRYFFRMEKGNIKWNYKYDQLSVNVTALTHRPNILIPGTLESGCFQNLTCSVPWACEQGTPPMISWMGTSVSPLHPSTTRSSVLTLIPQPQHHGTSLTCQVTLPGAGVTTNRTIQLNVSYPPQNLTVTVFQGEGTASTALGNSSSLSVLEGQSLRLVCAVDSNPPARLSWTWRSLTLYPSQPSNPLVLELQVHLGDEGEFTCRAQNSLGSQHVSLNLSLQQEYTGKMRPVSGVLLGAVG
T1 sequence (Q9NYZ4 17-363 limits assumed): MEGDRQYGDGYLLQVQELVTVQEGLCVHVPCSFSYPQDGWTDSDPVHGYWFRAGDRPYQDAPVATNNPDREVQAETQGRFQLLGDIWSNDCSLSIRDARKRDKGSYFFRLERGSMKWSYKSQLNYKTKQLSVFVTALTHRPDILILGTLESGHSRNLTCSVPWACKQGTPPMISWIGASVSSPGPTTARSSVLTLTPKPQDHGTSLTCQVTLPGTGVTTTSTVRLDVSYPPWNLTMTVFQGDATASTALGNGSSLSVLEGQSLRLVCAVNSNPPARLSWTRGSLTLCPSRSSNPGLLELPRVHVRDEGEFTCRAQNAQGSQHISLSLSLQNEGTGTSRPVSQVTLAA
T3 sequence (Q9Y336 18-348 limits assumed): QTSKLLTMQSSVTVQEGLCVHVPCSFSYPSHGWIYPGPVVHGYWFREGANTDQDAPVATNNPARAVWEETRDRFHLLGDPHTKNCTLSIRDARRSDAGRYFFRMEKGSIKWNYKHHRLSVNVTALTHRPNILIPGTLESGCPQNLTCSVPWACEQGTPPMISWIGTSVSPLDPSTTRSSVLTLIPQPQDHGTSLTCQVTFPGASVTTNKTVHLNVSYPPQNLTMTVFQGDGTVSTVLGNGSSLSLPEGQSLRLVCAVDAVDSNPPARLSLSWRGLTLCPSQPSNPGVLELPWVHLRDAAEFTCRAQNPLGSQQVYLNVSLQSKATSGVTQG

mfi at 0.125 ug/ml [1]: 500000 mfi
mfi at 0.250 ug/ml [1]: 750000 mfi
mfi at 0.500 ug/ml [1]: 1.25e+06 mfi
mfi at 1.000 ug/ml [1]: 1.75e+06 mfi
mfi at 2.000 ug/ml [1]: 1.75e+06 mfi
mfi at 4.000 ug/ml [1]: 2e+06 mfi
Signal:Background [2]: 50
Molecule: HIB19 monoclonal antibody (BioLegend, Cat no. 302202)

Gated for Anti-CD19 PE Expression [3]: 0.041 mfi
Gated for Anti-CD19 PE Expression [4]: 0.78 mfi
Gated for Anti-CD19 PE Expression [5]: 18.1 mfi
Gated for Anti-CD19 PE Expression [6]: 2.35 mfi
Gated for Anti-CD19 PE Expression [7]: 0.48 mfi
Gated for Anti-CD19 PE Expression [8]: 3.29 mfi
Gated for Anti-CD19 PE Expression [9]: 0.97 mfi
Gated for Anti-CD19 PE Expression [10]: 1.63 mfi
Gated for Anti-CD19 PE Expression [11]: 0.12 mfi
Gated for Anti-CD19 PE Expression [12]: 15.9 mfi
Gated for Anti-CD19 PE Expression [13]: 0.8 mfi
Gated for Anti-CD19 PE Expression [14]: 0.045 mfi
Gated for Anti-CD19 PE Expression [15]: 1.73 mfi
Gated for Anti-CD19 PE Expression [16]: 1.26 mfi
Molecule: Anti CD19 (FMC63 Clone)-PE (antibody)

binding result (SIGLEC 8): no binding
binding result (SIGLEC 7): no binding
binding result (SIGLEC 9): no binding
binding result [17]: binds
B1: CD19 E7 scFv (P4) (scFv)
scFv: DIQMTQSPSSLSASVGDRVTITCRASQDITRYLNWYQQKPGKAPKLLIYAASSLQSGVPSRFSGSGSGTDFTLTISSLQPEDFATYYCQQSYSYPPTFGQGTKVEIKGGGGSGGGGSGGGGSQVQLVESGGGVVQPGRSLRLSCAASGFTFRDYGMHWVRQAPGKGLEWVAVISYEGSNEYYADSVKGRFTISRDNSKNTLYLQMNSLRAEDTAVYYCARDRGFAGWYDYAFDPWGQGTLVTVSS
notes: also called 45; clone 45
